Experimental data as given in US10745461B2, “Pulsed introduction of low-dose RANKL as a therapy for diet-induced atherosclerosis” (Saint Louis University, priority 2015, dated 2020).
Entries after “also recorded” stand apart in the source; their conditions may differ.

Experiments:
atheroma plaque = assay: Male LDLR-/- mice on western diet, pulsed low-dose RANKL; assay type: in vivo; conditions: 9 weeks
Procedure: FIGS. 22 and 23 extend the evaluation of the effect of pulse RANKL treatment to male LDLR mice. Surgery was, unnecessary in this case, so all mice were simply placed on the western diet at 10 weeks of age. Two weeks later one-half of the mice were treated with pulsed low-dose RANKL as contemplated elsewhere herein and the same group was treated again 6 weeks later. Time of treatment is indicated by the arrows in FIG. 22. […] All mice were sacrificed 9 weeks after the start of the experiment and plaque volumes were compared between the two groups.

[1] = system: FoxP3+ CD8 T-cells (TcREG); assay: RANKL dose finding: FoxP3+ CD8 T-cells in bone marrow of FoxP3-GFP reporter mice; assay type: in vivo; conditions: two consecutive days, 50 hours after first dose, lowest dose 0.125 mg/kg
Procedure: FIGS. 1A, 1B and 1C indicate that TcREG are induced by activated osteoclasis. […] In the absence of RANK L treatment, very low level of conversion was observed after three days. […] ZA was administered intravenously one week prior to adoptive transfer of CD8 T-cells.
It was first determined the dose of RANKL that produced the maximal number FoxP3^+ CD8 T-cells in the bone marrow. RANKL was administered into FoxP3-GFP reporter mice at various doses for two consecutive days. Fifty hours after first dose, the mice were sacrificed and the numbers of CD8 T-cells that were GFP positive cells in the bone marrow were measured. […] The increased levels of FoxP3 in the bone marrow could either be due to recruitment of TcREG to the bone marrow or induction of FoxP3 expression in cells that were FoxP3 negative. To test for induction FACS sorted the GFP negative population of CD8 (Thy 1.2+ that were CD44 negative or naïve) from the spleens and bone marrow to high purity (FIG. 1C first panel) and adoptively transferred them into congenically marked (Thy 1.1) OT-I Rag^−/− mice. […] In the absence of RANKL administration low levels […] CD8 T-cell were detected (FIGS. 1B and C second panel), but RANKL administration (0.125 mg/kg) yielded ˜1% […] Thy 1.2 T-cells (FIGS. 1B and 1C third panel). […]

ovariectomized mice = assay: Low-dose RANKL at various times post-OVX in C57BL/6J mice; assay type: in vivo; conditions: for TcREG induction (flow-cytometry, femora): OVX C57BL/6J, two doses 0.125 mg/kg 24 hours apart, 10 days after first treatment, 2, 3, 6, 8 weeks post-OVX, 0.125 mg/kg
Procedure: FIGS. 9E-9F provide for examples of a low-dose RANKL treatment in a mouse model. All mice (C57BL/6J) were sham-operated (S) or ovariectomized (OVX) at 12 weeks of age. At time indicated after OVX, two doses of RANKL (0.125 mg/kg) were administered 24 hours apart 10 days after first treatment, mice were sacrificed. […] Representative images of the proximal tibia are shown from 3 weeks post-OVX in FIG. 9E. […] Representative images from the double-labeled femur (calcein green and alizarin red) from each group are shown. Arrows are shown to emphasize the distance between dyes. Data from 6 to 12 mice per group. For figure reference; ****=P<1×10^−4; ***=P<1×10^−3; **=P<0.01; *=P<0.05 and NS=not statistically significant.

DLL4 = DLL4 expression in mature osteoclasts by qRT-PCR; assay type: cell-based, mouse
Source text: DLL-4 expression is repressed in the presence of […] and IL-17 but can be de-repressed by RANKL. Having identified that DLL4 was required for osteoclasts to induce Foxp3 expression in CD8+ T cells we next tested if DLL-4 expression was affected by pro-inflammatory cytokines. […] As RANKL induced DLL4 in osteoclast precursors, it was hypothesized that adding additional RANKL may overcome the repression of DLL4 by TNFα. To assess the reversibility of DLL4 expression, mature osteoclasts were cultured overnight in 50 ng/ml RANKL and 20 ng/ml […], and then additional RANKL was added to the culture media (while maintaining 20 ng/ml TNFα) as shown in FIG. 5E. Indeed, addition of RANKL overcomes (within 24 hours) the repression of DLL4 by TNFα as assessed by qRT-PCR. […] The experiment was performed as above, but in this case FoxP3 induction in OT-I CD8 T-cells in the presence of OVA and either 10 ng/ml or 20 ng/ml TNFα was measured.
Osteoclasts seeded on day 4 at 1.5×10^6 cells/ml were used in all experiments. RNA was isolated at time point described in Figure legends. 10 to 50 ng of RNA was used for first-strand cDNA synthesis in 50 μL reaction per kit instructions (Superscript III cDNA synthesis system; Invitrogen). In all cases 10% of the cDNA product was used in a 50 μL PCR reaction that contained 10 μM each forward and reverse primers. For quantitative PCR (qPCR) SYBR green system (Invitrogen) was used. Otherwise, cDNA was amplified (25 cycles) and the products resolved on 1.2% agarose gel and visualized by ethidium bromide staining.

[2] = system: aortic plaque development and bone loss; assay: Ovariectomized WT or LDLR-lacking female mice on Western Diet, pulsed low dose RANKL 14 days and 6 weeks post surgery; assay type: in vivo
Source text: With specific regards to determining an effect on atherosclerosis, ten-week old female mice that were either C57BL/6J (WT) or lacking low-density lipoprotein receptor (LDLR) were randomly assigned to chow (LabDiet 5L0B, containing 5% fat and 0.014% cholesterol, by weight) or a “Western Diet” that was high in fat and cholesterol (Teklad TD96121, containing 21% fat and 1.25% cholesterol). When the mice were 12 weeks old, all animals were surgically operated. Half the mice were ovariectomized (simulating menopause), and the other half had sham surgery. One group of ovariectomized mice on the Western Diet were treated with pulsed low dose RANKL (0.125 mg/kg) 14 days post surgery (14 weeks of age) and 6 weeks post surgery (18 weeks old). All mice were sacrificed at 20 weeks of age, and bone loss and aortic plaque development were analyzed.

B1: receptor activator of NF-κB ligand (protein, UniProt O35235 139-316, looked up)
Tumor necrosis factor ligand …: FSGAPAMMEGSWLDVAQRGKPEAQPFAHLTINAASIPSGSHKVTLSSWYHDRGWAKISNMTLSNGKLRVNQDGFYYLYANICFRHHETSGSVPTDYLQLMVYVVKTSIKIPSSHNLMKGGSTKNWSGNSEFHFYSINVGGFFKLRAGEEISIQVSNPSLLDPDQDATYFGAFKVQDID
modifications: GST tag
For B1, the plaque volumes (atheroma plaque) was “plaque volumes were reduced in the treated group”, the weight gain (atheroma plaque) was “weight gain in the treated mice was reduced” and the “proportion of FoxP3+ CD8 T cells in the bone marrow as a function of RANKL dose” value [1] was “induced the largest proportion of FoxP3^+ CD8 T cells”. The “TcREG induction (flow-cytometry, femora)” value (ovariectomized mice; listed as Low-dose RANKL) was “induced TcREG”, the “TcREG induction (flow-cytometry, femora)” value (ovariectomized mice; listed as low-dose RANKL) was “can induce TcREG at two, three, six and eight-weeks post-ovariectomy” and the “bone mass of the proximal tibia by μCT” value (ovariectomized mice; as E20) was “increased bone mass of the proximal tibia”. For the same molecule, the “mineral apposition and bone formation rate (dynamic histomorphometry)” value (ovariectomized mice; as E20) was “increased mineral apposition (left panel) and bone formation rate”, the “proinflammatory effector cells in the femora” value (ovariectomized mice; as E20) was “decreased proinflammatory effector cells in the femora” and the “serum CTX levels” value (ovariectomized mice; as E20) was “decreased serum CTX levels”. The “time for RANKL to overcome the repression of DLL4 by TNFα” value (DLL4; 20 ng/ml TNFα) was at most 24 h, the “DLL4 expression after additional RANKL” value (DLL4; mature osteoclasts, 50 ng/ml RANKL and 20 ng/ml TNFα maintained) was “increased the expression of DLL4; also recorded: overcomes” and the plaque volume ([2]; low dose RANKL treated mice) was “plaque volume in low dose treated mice was also reduced”. The weight gain ([2]; low dose RANKL vs without treatment) was “less weight gain”, the inflammation ([2]; ovariectomized mice, compared to Zolendronate) was “reduced” and the “number of atherosclerotic lesions in the aortic root” value ([2]; ovariectomized, western diet) was “the number of atherosclerotic lesions in the aortic root was reduced”. The osteoporosis ([2]; ovariectomized, western diet) was “ameliorate osteoporosis”.
